Source: US10500274B2, “Methods for reducing viral load in HIV-1 infected patients” (CytoDyn Inc., priority 2008, dated 2019)
Several values for one entry are separate records, joined by “and”; a condition that tells them apart may be missing. Equal values may be shown once. Read-outs that look alike come from different tables or passages of the source.

Assays:
[1] = human, in vivo; for Peak serum concentration (average) / mean time to last observation (tlast) / volume of distribution (average): iv
Source text: PK metrics were estimated using non-compartmental methods.

[2] = system: HIV-1 isolates of study subjects; assay: PhenoSense HIV Entry assay on viruses of Phase 1b subjects; type: cell-based
Experimental: Plasma HIV-1 RNA levels were determined with the Cobas Amplicor HIV-1 Monitor Test (Version 1.5; Roche Diagnostics, Branchburg, N.J.). Samples <400 copies/mL were re-analyzed with the Ultrasensitive Monitor Method. Co-receptor tropism was determined at screening and Days 1, 8, 29 and 59 (Trofile™ assay, Monogram Biosciences, Inc., South San Francisco, Calif.). Viral susceptibility was determined on Days 1 and 59 with the Phenosense™ HIV Entry assay. […] Maximum percent inhibitions were determined from the plateaus of the inhibition curves. The reference virus was HIV-192HT594, a low-passage dual-tropic isolate. GeneSeq™ (Monogram Biosciences) was used to assess HIV-1 subtype and genotypic susceptibility to protease and reverse transcriptase inhibitors.

CCR5 lymphocytes = assay: Phase 1a clinical study: coating of CCR5 cells by PRO 140; type: in vivo, human; details: single IV 2 mg/kg
Experimental: Individuals were treated in sequential, dose-rising cohorts of 5 subjects (4 active and 1 placebo) each and evaluated for up to 120 days post-treatment. […] Safety assessments consisted of monitoring the following: vital signs (blood pressure, pulse, temperature, etc; hematology (hemoglobin, hematocrit, leukocytes, platelets, etc.); serum chemistries (AST/ALT, alkaline phosphatase, BUN, creatinine, etc.); urinalysis (pH, specific gravity, protein, glucose, leukocytes, etc.); and ECGs (12-lead).
Whole blood specimens were combined separately with the indicated phycoerythrin-labeled anti-CCR5 antibodies or with appropriate isotype-control antibodies. Erythocytes were lysed and leukocytes were stabilized using the ImmunoPrep Reagent System (Beckman Coulter), and the cells were analyzed on a TQ Prep™ flow cytometry workstation (Beckman Coulter). Data were expressed as the percent of CCR5 cells relative to all cells gated in the analysis.

B1: PRO 140: humanized IgG4,κ anti-CCR5 mAb, humanized version of the murine mAb PA14 (antibody, chains of the INN, looked up, V domains shown)
VH: EVQLVESGGGLVKPGGSLRLSCAASGYTFSNYWIGWVRQAPGKGLEWIGDIYPGGNYIRNNEKFKDKTTLSADTSKNTAYLQMNSLKTEDTAVYYCGSSFGSNYVFAWFTYWGQGTLVTVSS
VL: DIVMTQSPLSLPVTPGEPASISCRSSQRLLSSYGHTYLHWYLQKPGQSPQLLIYEVSNRFSGVPDRFSGSGSGTDFTLKISRVEAEDVGVYYCSQSTHVPLTFGQGTKVEIK
[1]
  time of peak concentrations post-infusion: 30 to 60 min
[1]; 0.5 mg/kg
  Peak serum concentration (average): 13 µg/mL
  mean time to last observation (tlast): 6.1 days
  volume of distribution (average): 8.4 L
[1]; 2 mg/kg
  Peak serum concentration (average): 61 µg/mL
  mean time to last observation (tlast): 18.2 days
  volume of distribution (average): 13.8 L
[1]; 5 mg/kg
  Peak serum concentration (average): 173 µg/mL
  mean time to last observation (tlast): 18.9 days
  volume of distribution (average): 7.1 L
[2]; IC50 or Fold Change
  change in viral susceptibility, baseline to day 59 (in words): No change from baseline to day 59
[2]; baseline
  Mean Maximum Percent Inhibition (MPI): 99% and 98.9±1.5%
  variation of baseline rIC50 values across the 39 subjects: 6.2 fold
[2]; baseline, viruses of PRO 140-treated subjects
  Mean rIC50 (IC50 test isolate / IC50 reference virus): 2.0 (range: 0.83-5.1)
[2]; post-treatment (end of study)
  Mean Maximum Percent Inhibition (MPI): 99% and 99.0±1.0%
CCR5 lymphocytes
  coating of CCR5 lymphocytes (in words): effectively coats CCR5 lymphocytes without cellular depletion for two weeks
